Assay results taken from the supplement of paper PMC9170038.

System: MS2 coat protein
Experiment: apparent KD of MS2 coat protein; designed switch direction (-1 OFF switch, 1 ON switch): -1; higher = weaker reporter binding
Summary of the method: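 For each design, the apparent KD is the median over clusters of curves fitted to normalised cluster fluorescence. Clusters held RNA switches with common flanks, transcribed on Illumina chips by stalled E. coli RNA polymerase. These were titrated with SNAP-549-labelled MS2 coat protein, doubling from 0.7 or 1.5 nM to 3 µM, without input, with 200 uM small-molecule ligand, or with an oligonucleotide input.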

[1] = input ligand: microRNA oligo, concentration not stated
[2] = Eterna round: R95, input ligand: FMN 200 uM
[3] = Eterna round: R95, input ligand: microRNA oligo, concentration not stated
[4] = Eterna round: R95, input ligand: none

Sequence	apparent KD of MS2 coat protein (input ligand: FMN 200 uM)	apparent KD of MS2 coat protein [1]	apparent KD of MS2 coat protein (input ligand: none)	apparent KD of MS2 coat protein [2]	apparent KD of MS2 coat protein [3]	apparent KD of MS2 coat protein [4]
UGAUCUAGCGGAGGAUAUACAUGAGGAUCACCCAUGUAGAUAACAUGACCGUAGUCGUGUAUCGUGUAGAAGGCCGCUAGAUCU [JL ENG2 3.67] (Eterna round: R96, puzzle: Exclusion NG 2)	35 nM	9.25 nM	12.6 nM			
UGAUCUAGCGGAGGAUAUACAUGAGGAUCACCCAUGUAGAUGAGUGUACCGUAGUGCACUCUUGUGUAGAAGGCCGCUAGAUCU [JL ENG2 3.56] (Eterna round: R96, puzzle: Exclusion NG 2)	24.8 nM	12.6 nM	16.7 nM			
UGAUCUAGCGGAGGAUAUACAUGAGGAUCACCCAUGUAGUGGUGACGUGCGUACAUGUCACCUGUGUAGAAGGCCGCUAGAUCU [JL ENG2 3.58] (Eterna round: R96, puzzle: Exclusion NG 2)	20.1 nM	9.65 nM	14.8 nM			
UGAUGACAUGAGGAUCACCCAUGUCAGGAUAUUGAGCUUGAGCUGAAAAGUUCGAGUUCGAGAAGGGACUGUCG [-29.6, -26.6 kcal, A 28%, 1] (Eterna round: R97, puzzle: Exclusion 1)	28.2 nM		29 nM			
UGAUUGUGAGGAUAUUCUGAAUAAGGCACGGGCGUCUUAUUGAAGAAGGCACAUGAGGAUCACCCAUGUGGGUU [Eternabot (L2) Solution 90] (Eterna round: R97, puzzle: Exclusion 4)	248 nM		188 nM			
UGAUUGUUUACCAGAUUAUACAUGAGGAUCACCCAUGUAGAUCCUACGUGCACGUUAUACCGCUCGUCUUAUUCCCA [Sensor-V1 #75] (Eterna round: R97, puzzle: Sensor, turn-off variant 1)	44.6 nM		41.2 nM			
UGAUUGUUUACCAGGUUAUACAUGAGGAUCACCCAUGUAGAUCCUACGUGCGCGUUGUACCGCUCGUCUUAUUGCCA [Sensor-V1 #79] (Eterna round: R97, puzzle: Sensor, turn-off variant 1)	19.5 nM		21.3 nM			
UGCACCUCAGGAUAUACUAGGUCCAGUAUGGCGAAAGCCGCACAUGAGGAUCACCCAUGUAGAAGGGAGGUGCA [Eternabot (L1) Solution 61] (Eterna round: R97, puzzle: Exclusion 2)	34.1 nM		257 nM			
UGCAGACGAGGAUAUAAACGAUAUAACAUGAGGAUCACCCAUGUACGAUCGAAUGAUCGUUUAGAAGGCGUCUGCU [E5/10-A3] (Eterna round: R97, puzzle: Exclusion 5)	16.1 nM		16.2 nM			
UGCAGACGAGGAUAUGAUAAAGAUCACAUGAGGAUCACCCAUGUACGCAGGAUACUGCGAUCAGAAGGCGUCUGCA [E5/1-A3] (Eterna round: R97, puzzle: Exclusion 5)	16.3 nM		13 nM			
UGCGGAAGAGGAUAUACAUUGAAUUUGAUUCAUGUAAAACUACAUGAGGAUCACCCAUGUAGAAGGCUUUCGCU [Mat - Exclusion 2 - JL Mod - D66] (Eterna round: R97, puzzle: Exclusion 2)	33.7 nM		17.7 nM			
UGCGGUUGAGGAUAUACGUAGAAGUAGAUUCAUGUAAAACUACAUGAGGAUCACCCAUGUAGAAGGCAAUCGCU [Mat - Exclusion 2 - JL Mod - D40] (Eterna round: R97, puzzle: Exclusion 2)	193 nM		21.5 nM			
UGCUACGGAGGAUAUACAUGAGGAUCACCCAUGUGAUAGAUUAUGCCGAGAGGCUAGUGUAGAAGGCCGUAGCU [jl-ex3-4.14 jl mod] (Eterna round: R97, puzzle: Exclusion 3)	683 nM		189 nM			
UGGAUAAUUGGAGGAUAUGCGACAUAAACCAUUGUAGAAGGCCAACAUGAGGAUCACCCAUGUGUCCCAGAGACCACAGAUCCA [Eternabot solution 9] (Eterna round: R96, puzzle: Exclusion NG 1)	36.9 nM	22.2 nM	28.2 nM			
UGGCUGCUCAGGGAGUGUGACAUGAGGAUCACCCAUGUGGUAGUAAGGAACAAGCUUUUUACACGUACUUAUAAAGC [JR_SV3TOV1_Sub011] (puzzle: Sensor v3, turn-off variant 1)				157 nM	135 nM	296 nM
UGGUAACAUGAGGAUCACCCAUGUCAGGAUAUCAGGAAGAAGAGAGGAGAGGAGAAGAUGAGAAGGGACUAUAU [Excluse me! 11 - Jieux - Exclusion 1] (puzzle: Exclusion 1)				21.6 nM	19.8 nM	26.2 nM

Sequence	apparent KD of MS2 coat protein (input ligand: FMN 200 uM)	apparent KD of MS2 coat protein [1]	apparent KD of MS2 coat protein (input ligand: none)	apparent KD of MS2 coat protein [2]	apparent KD of MS2 coat protein [3]	apparent KD of MS2 coat protein [4]
UGGUAACAUGAGGAUCACCCAUGUCAGGAUAUCAGUAAGAAUAGAGGAGAGUAGAAGAUGAGAAGGGACUAUAU [Excluse me! 8 - Jieux - Exclusion 1] (puzzle: Exclusion 1)				20.5 nM	33.4 nM	30.8 nM
UGUAACCUAGGAUAUACAUGAGGAUCACCCAUGUAAUGUAGUAUAGUGUGUGUGAGGUGUAGAAGGUGGGAUGU (Eterna round: R97, puzzle: Exclusion 3)	60.4 nM		60.2 nM			
UGUACUAUGCGAGCUGACUUGCGUAGUGCAGCAGGUGAAACAUGAGGAUCACCCAUGUCCUCAUUUGCUCGUCUUAU [SL-sv3-2.02 JL mod] (Eterna round: R96, puzzle: Sensor v3, turn-off variant 2)	45.2 nM	399 nM	43.1 nM			
UGUACUAUGCGAGCUGACUUGCGUAGUGCAGCAGGUGAAACAUGAGGAUCACCCAUGUCCUCAUUUGCUCGUCUUAU [SL-sv3-2.02 JL mod] (puzzle: Sensor v3, turn-off variant 2)				47.7 nM	599 nM	41.6 nM
UGUAUAGGAGUGAGGAUAUGGAAACUGGAAAAGGACCAGAAGGCACAUGAGGAUCACCCAUGUGGUUCUCAAGA [Eternabot (Original) Solution 50] (Eterna round: R97, puzzle: Brourd's mod of Exclusion 4)	1210 nM		373 nM			
UGUCCAAUACAGGAUAUUCUCGCGUAGUAGCAAGGAGAAGGGUAGACAUGAGGAUCACCCAUGUGAUUCAUCUG [Eternabot (L2) Solution 68] (Eterna round: R97, puzzle: Exclusion 6)	438 nM		575 nM			
UGUCCACAUUCCGAUACGGGACAUGAGGAUCACCCAUGUCCACAGGAUAUCGUCUUACGAGAGAUCGAGAAGGGUGGCGUGCGC [Eternabot solution 22] (Eterna round: R96, puzzle: Exclusion NG 3)	13.1 nM	9.72 nM	14.1 nM			
UGUCUUCAUAUCACAUGAGGAUCACCCAUGUUAUUCAUCUCGUAGGAUAUCGAGGUUUAUUAUUUCGAGAAGGACGUAUUGUUU [JR_ExcNG3_Sub076] (Eterna round: R96, puzzle: Exclusion NG 3)	199 nM	112 nM	148 nM			
UGUCUUGCAGGAUAUCAUGUGAUAUACAUGAGGAUCACCCAUGUUAGCCUCAUGAGCGUCUGAGAAGGGUAAGACG [Eternabot (L2) Solution 22] (Eterna round: R97, puzzle: Exclusion 5)	131 nM		40.1 nM			
UGUGGACAUGAGGAUCACCCAUGUCAGCCGUGUCCACCGAGAGAGGAUAUUGGUCAACCAGGGACUAAGAAGGCUCAGAGCUGG [Eternabot solution 47] (Eterna round: R96, puzzle: Exclusion NG 3)	30.3 nM	37.4 nM	46.4 nM			
UGUUGUCGCGCAGGAUAUGAGGAUCACCCAUAUAAAGGAUAUGAAAAGAAGGUUCUGAGGAUUACCCAGAAGGGCGGGACAACU [pwkr exNG2 2xF5 2xFMN.16] (Eterna round: R96, puzzle: Exclusion NG 2)	250 nM	40.3 nM	52.3 nM			
UGUUGUCGCGCAGGAUAUGAGGAUCACCCAUAUAGAGGAUAUGAAAAGAAGGCUCUGAGGAUUACCCAGAAGGGCGGGACAACU [pwkr exNG2 2xF5 2xFMN.21] (Eterna round: R96, puzzle: Exclusion NG 2)	1660 nM	152 nM	179 nM			
UGUUGUCGCGUAGGAUAUUGUCAACAGGCAGUAGGAUAUGCGAAAGCAGAAGGACCGCCAACAGGCGAGAAGGACGGGACAACU [pwkr exNG2 2xF7 2xFMN.6] (Eterna round: R96, puzzle: Exclusion NG 2)	44.3 nM	35.6 nM	138 nM			
UGUUGUUACGCAGGAUAUGCAUGAGGAUCACCCAUGCAAUUAGAGUUAACAUGAGGAUCACCCAUGUAGAAGGGCGGGUUAACA [pwkr exNG2 2xF5 1xFMN.4] (Eterna round: R96, puzzle: Exclusion NG 2)	82.2 nM	45.8 nM	57.6 nM			
UGUUGUUACGUAGGAUAUCCACCAACAGGUGGAAGGAUAUGGAAACAGAAGGUUCGCCAACAGGCGGAGAAGGACGUGUUAACU [pwkr exNG2 2xF7 2xFMN.23] (Eterna round: R96, puzzle: Exclusion NG 2)	2.79 nM	3780 nM	288 nM			
